# Experimental data taken from the RNAGym collection of RNA variant scans (doi:10.7554/elife.80360).
# B1: HDV Ribozyme (parent)
# chain: GGCCGGCAUGGUCCCAGCCUCCUCGCUGGCGCCGGCUGGGCAACAUUCCGAGGGGACCGUCCCCUCGGUAAUGGCGAAUGGGACCCA
# Variants of: B1
# Test: self-cleavage, relative activity (ratio to wild type); higher = more cleavage; co-transcriptional
row,Variant,self-cleavage
1,C7A U46C,0.453
2,C7U C15U,0.674
3,C7U C15A,0.256
4,C7U G29C,0.185
5,C7U G29A,0.0906
6,C7U G29U,0.157
7,C7G C48A,0.262
8,C7G C66A,0.161
9,C7G G29A,0
10,C7G G29U,0
11,C7G G17A,0
12,C7G G17U,0
13,C7A U27G,0.447
14,C7A U27A,0.609
15,C7A U47C,0.277
16,C7A U47G,0.317
17,C7U C14G,0.308
18,C7U C14A,0.516
19,C7A G35A,0.0841
20,C7A G35U,0.0906
21,C7G C15G,0
22,C7G C15A,0
23,C7G C15U,0.0978
24,C7A G54A,0.504

row,Variant,self-cleavage
1,C7A G54U,0.609
2,A8C A42G,0.462
3,C7G A43G,0
4,C7G A43C,0.111
5,C7G U60C,0.383
6,C7G U60G,0.256
7,C7U C18U,0.277
8,C7A G39C,0
9,C7G G35U,0.0811
10,C7A U37G,0.246
11,C7G G74U,0.0361
12,C7G G73C,0
13,C7A G28U,0.0361
14,C7G C22A,0
15,C7U C75U,0.0978
16,C7G A70U,0.475
17,C7A C86A,0.804
18,C7A C86G,0.571
19,C7A C86U,0.831
20,C7A C66G,0.243
21,C7U C84U,0.686
22,C7G C41U,0.0615
23,C7G C41A,0
24,C7G C41G,0.128

row,Variant,self-cleavage
1,C7A C61U,0.441
2,C7G C33G,0.237
3,C7A G74C,0.131
4,C7A G73A,0.106
5,C7A G81A,0.0302
6,C7U G28A,0.136
7,C7U G28C,0.237
8,C7U G82A,0.251
9,C7U G82U,0.0678
10,A8C,0.859
11,C7U C64G,0.892
12,C7U C64U,0.68
13,C7U A71U,0.677
14,C7U A71G,0.931
15,C7U A71C,0.322
16,C7U G74C,0.325
17,C7A U9C,0.604
18,C7G U23G,0.217
19,C7G U23A,0.227
20,C7G G11U,0.104
21,C7U G68A,0.969
22,C7U G68C,0.704
23,C7G C84U,0
24,C7G C84G,0.0665

row,Variant,self-cleavage
1,C7A U12A,0.0978
2,C7A U12C,0.172
3,C7A U65C,0.522
4,C7U C24A,0.256
5,C7U G59C,0.848
6,C7G C24A,0.208
7,C7G C24G,0.123
8,C7G G68U,0.285
9,C7G G68C,0.0504
10,C7A C63G,0.35
11,C7A C63A,0.489
12,C7A G50A,0.527
13,C7U C26G,0.534
14,C7U C26A,0.91
15,C7U C26U,0.867
16,C7G A42C,0.208
17,C7G G28A,0.0536
18,C7G G28U,0.0875
19,C7G G28C,0
20,C7G C44G,0.0755
21,C7A G38A,0.0639
22,C7A G38U,0.0346
23,C7G C86G,0.378
24,C7A G52C,0.482

row,Variant,self-cleavage
1,C7G U79G,0.104
2,C7G U79C,0.0489
3,C7U C62U,0.831
4,C7U C62G,0.643
5,C7U U65G,0.856
6,C7G A71U,0.0639
7,C7U C49G,0.665
8,C7U G31A,0.876
9,C7U G31C,0.727
10,C7U G25U,0.203
11,C7A G10A,0.0831
12,C7U C41A,0.571
13,C7G C18A,0.0639
14,C7G C18G,0
15,C7G A83C,0.175
16,C7G A83G,0.17
17,C7A G80C,0.192
18,C7U C85G,0.985
19,C7U C85U,0.886
20,C7A C58U,0.731
21,C7A C58G,0.705
22,C7U G80A,0.164
23,C7U G80C,0.0773
24,C7A U20C,0

row,Variant,self-cleavage
1,C7A U20G,0.312
2,C7G A87C,0.211
3,C7G A87G,0.381
4,C7G G39U,0
5,C7A C75G,0.225
6,C7A C75U,0.131
7,C7A C75A,0.0923
8,C7G G38C,0.0594
9,C7G G81A,0.0594
10,C7G G81C,0
11,C7G C62U,0.302
12,C7U G76C,0.815
13,C7A G82U,0.256
14,C7A G82A,0.0875
15,C7A G82C,0.0811
16,C7G G53C,0
17,C7U C19G,0.0528
18,C7U C19U,0.0519
19,C7U U23A,0.923
20,C7U U23C,0.516
21,C7G A78U,0.0791
22,C7G A78G,0.0831
23,C7G A78C,0.175
24,C7G A16G,0.0978

row,Variant,self-cleavage
1,C7G A16C,0.151
2,C7G A16U,0.0692
3,C7U G52U,0.562
4,C7U G52C,0.849
5,C7A G76C,0.988
6,C7G A77C,0.0692
7,C7U A83C,0.287
8,C7U A83G,0.475
9,C7G C63A,0.172
10,C7G C63G,0.201
11,C7A C85A,0.453
12,C7A C85U,0.807
13,C7G G59A,0.332
14,C7G G59C,0.404
15,C7U G34U,0.0923
16,C7A C84A,0.519
17,C7A U69C,0.617
18,C7U U69G,0.855
19,C7U A45U,0.415
20,C7U A45C,0.119
21,C7U A43G,0.19
22,C7U A43U,0.475
23,C7U A43C,0.26
24,C7A G34C,0

row,Variant,self-cleavage
1,C7A G34U,0
2,C7A G34A,0.175
3,C7A G68C,0.341
4,C7G C57U,0.383
5,C7G C57G,0.208
6,C7G G25U,0.0831
7,A8C A43C,0.185
8,A8C A43G,0.151
9,C7U G11C,0.119
10,C7G G54A,0.302
11,C7G G54C,0.415
12,C7G G54U,0.219
13,C7A G53C,0.38
14,C7G C30U,0.138
15,C7G C30G,0.119
16,C7G G82A,0.113
17,C7U C22G,0.0678
18,C7U C22A,0.261
19,C7G U20G,0.145
20,C7G U20C,0
21,C7G A51U,0.107
22,C7G A51C,0.437
23,C7G A45C,0
24,C7U A78U,0.166

row,Variant,self-cleavage
1,C7U A78G,0.375
2,C7G C14U,0.196
3,C7G C14A,0.0923
4,C7G C49A,0.145
5,C7G C49G,0.123
6,C7G C49U,0.237
7,C7G U37A,0.147
8,C7A C62A,0.618
9,C7A C62G,0.0665
10,C7U G38C,0.0462
11,C7U C86U,0.678
12,C7U C86A,0.872
13,C7U C86G,0.617
14,C7U C21G,0.0739
15,C7U C21U,0.0652
16,C7U C21A,0.0314
17,C7G C64U,0.396
18,C7G C64G,0.111
19,C7G C64A,0.0831
20,C7U G73A,0.424
21,C7U G73C,0.224
22,C7U G73U,0.277
23,C7G G76U,0.237
24,C7G G76A,0.172

row,Variant,self-cleavage
1,C7U U72A,0.604
2,C7U U72C,0.268
3,C7U U72G,0.332
4,C7G G52A,0.151
5,C7U C48U,0.997
6,C7U C48A,0.767
7,C7G C58G,0.293
8,C7G C58A,0.506
9,C7G C19U,0
10,C7A U23A,0.739
11,C7A U23C,0.935
12,C7U G39A,0.3
13,C7U G39U,0.289
14,C7U G55U,0.815
15,C7G C21A,0
16,C7G C21G,0
17,C7G U12C,0.111
18,C7U C66G,0.974
19,C7U C66A,0.776
20,C7G G80C,0
21,C7G G80U,0.0462
22,C7A U60G,0.356
23,C7A U60A,0.665
24,C7A U60C,0.712

row,Variant,self-cleavage
1,C7U U46A,0.623
2,C7U U46C,0.447
3,C7U,0.86
4,C7G,0.315
5,C7U G50C,0.689
6,C7U U47G,0.9
7,C7U U47A,0.554
8,C7A G17U,0.162
9,C7A G17A,0.0475
10,C7A G17C,0
11,C7U C58G,1.02
12,C7U A77G,0.434
13,C7G C75U,0
14,C7G C75A,0
15,C7U G10U,0.374
16,C7G C32U,0.104
17,C7G C32G,0.115
18,C7U C30A,0.369
19,C7U C30G,0
20,C7A U72A,0.308
21,C7A U72C,0.196
22,C7A U72G,0
23,A8C A45U,0.429
24,A8C A45C,0.156

row,Variant,self-cleavage
1,C7U G67C,0.529
2,C7A U79C,0.128
3,C7G U46A,0
4,C7A G29U,0.0875
5,C7A G29C,0.0707
6,A8C A16U,1.16
7,C7G U65A,0
8,C7U U20G,0.133
9,C7U U20A,0.0594
10,C7U U20C,0
11,C7U C57A,0.979
12,C7U C57U,0.927
13,C7U C33A,0.0831
14,A8C A51G,0.997
15,A8C A51C,0.802
16,C7G G67U,0.302
17,C7G G67A,0.128
18,C7G A56G,0.208
19,C7G A56C,0.391
20,C7U C63A,0.751
21,C7U C63G,0.569
22,C7A G40C,0.102
23,C7U G53C,1.12
24,C7G G34A,0.115

row,Variant,self-cleavage
1,C7G G34U,0.0504
2,C7U A16U,0.643
3,C7U A16G,0.72
4,C7G G55C,0.214
5,C7G G55U,0.17
6,C7A G25U,0.102
7,C7A G25A,0.175
8,C7G G50A,0.612
9,C7G G50U,0.237
10,C7U A87G,0.91
11,C7U U27C,0.404
12,C7U U27A,0.519
13,C7A G55C,0.778
14,C7A G55U,0.4
15,C7G C85G,0.237
16,C7G C85U,0.32
17,C7U U79G,0.434
18,C7U U79C,0.126
19,C7A G67U,0.378
20,C7G U72G,0
21,C7G U72A,0.0755
22,C7G C61U,0.237
23,C7U A70U,0.748
24,C7G C26A,0.138

row,Variant,self-cleavage
1,C7G C26G,0.369
2,C7G U9G,0.831
3,C7G U9A,0.237
4,C7U A8C,0.917
5,C7U C61A,0.87
6,C7U U9C,1.02
7,C7G G10A,0.128
8,C7G G31U,0.745
9,C7U G35A,0.109
10,C7U G35U,0.0437
11,C7A G31U,1.07
12,C7A G31C,1.03
13,C7A G31A,0.87
14,C7U G54A,0.787
15,C7U A51G,0.965
16,C7U G40C,0.166
17,C7U G40A,0.752
18,C7G U47G,0
19,C7U U37C,1.14
20,C7U U37A,0.0739
21,C7U G17A,0.332
22,C7U C44A,0.403
